Measurements reported in patent US20250296992A1 (Genmab, published 2025).
Residue numbers refer to the chain shown, from its start.

B1: hu1H2-03-LD343 (8) (antibody, V domains shown)
VH: EVQLVESGGGLVQPGGSLRLSCAASGFTFSDYGLHWVRQAPGKGLEWVSYISSGSSTVYFADTLKGRFTISRDNAKNSLYLQMNSLRAEDTAVYYCTRGTWYFDVWGRGTLVTVSS
VL: DIQMTQSPSSLSASVGDRVTITCRTSENIHSYLAWYQQKPGKSPQLLVYNAKTLADGVPSRFSGSGSGTDYTLTISSLQPEDFGTFYCQHFWTTSRTFGGGTKVEIK
modifications: drug-linker LD343 on cysteines freed by TCEP reduction, DAR 8.0; positions not given
B2: phA290 (antibody, V domains shown)
VH: QVQLVQSGAEVKKPGASVKVSCKASGYTFTSYYMHWVRQAPGQGLEWMGIINPSGGSTSYAQKFQGRVTMTRDTSTSTVYMELSSLRSEDTAVYYCARGFTRYFDYWGQGTLVTVSA
VL: EIVMTQSPGTLSLSPGERATLSCRASQSVSKYLAWYQQRPGQAPRLLIYDASNRATGIPARFSGSGSGTDFTLTVSSLEPEDFAVYYCQQRYNWPLTFGGGTTVEIK
notes: From phage display, then full-length construction; Only the variable regions are tied to the name
B3: phA108 (antibody, V domains shown)
VH: QVQLVQSGAEVKKPGASVKVSCTASGYIFNDYYLHWVRQAPGQGLEWVGIINPSGGSPVYAQKFQGRVTMTRDTSTNTVYMELSSLRSEDTAVYYCARGMVRGVRLFDYWGQGTLVTVSA
VL: B2 VL with M4L, G9A, K31S, R39K, A43T, I58V, V75I, P80T, Y92T, T103K
notes: as for B2

Key:
human SLITRK6 on cells [1] = molecular target: T1, human SLITRK6 on cells (human, UniProt Q9H5Y7 27-841); experiment: flow cytometry on RT4 cells, PE-conjugated anti-human Fc
T1 construct: whole, on cells
Procedure: (§1) The binding activity of mAbs and ADCs was evaluated by flow cytometer (Beckman, Cytoflex). Specifically, cells were incubated with 50 μL of mAbs or ADCs in series dilutions in PBS containing 1% BSA at 4° C. for 30 min. The cells were washed twice with PBS containing 1% BSA, stained with PE-conjugated anti human Fc in PBS containing 1% BSA and then incubated at 4° C. for 20 min. After that the cells were washed twice with PBS and analyzed by a flow cytometer.

human SLITRK6 on cells [2] = molecular target: T1, human SLITRK6 on cells; experiment: flow cytometry on SW780 cells, PE-conjugated anti-human Fc
Procedure: as §1

human SLITRK6 on cells [3] = molecular target: T1, human SLITRK6 on cells; experiment: flow cytometry on SCC-4 cells
Procedure: (§2) The binding activity of mAbs was evaluated by flow cytometer (Beckman, Cytoflex). Specifically, cells were incubated with 50 μL of mAbs or ADCs in series dilutions in PBS containing 1% BSA at 4° C. for 30 minutes. The cells were washed twice with PBS containing 1% BSA, stained with PE-conjugated anti human Fc in PBS containing 1% BSA and then incubated at 4° C. for 20 min. After that the cells were washed twice with PBS and analyzed by a flow cytometer.

human SLITRK6 on cells [4] = molecular target: T1, human SLITRK6 on cells; experiment: flow cytometry on 293F-SLITRK6-C9 cells
Procedure: as §1

human SLITRK6 on cells [5] = molecular target: T1, human SLITRK6 on cells; experiment: flow cytometry on CHP-212 cells
Procedure: as §1

[6] = molecular target: T2, cynomolgus monkey SLITRK6 extracellular domain linked to his tag (cynomolgus monkey, UniProt G7PVK4 27-608); experiment: ELISA, coated antigen
T2 construct: extracellular domain; also called cynoSLITRK6; Cyno SLITRK6; not shown: his tag

[7] = molecular target: T3, human SLITRK6 extracellular domain linked to his tag (human, UniProt Q9H5Y7 27-608); experiment: ELISA, coated antigen
T3 construct: extracellular domain; also called huSLITRK6; Hu SLITRK6; not shown: his tag

rat SLITRK6 = molecular target: T4, rat SLITRK6 (rat, UniProt D3ZP44 27-607); experiment: ELISA, coated antigen
T4 construct: extracellular domain; not shown: his tag

human SLITRK6 on cells [8] = molecular target: T1, human SLITRK6 on cells; experiment: flow cytometry on RT112/84 cells
Procedure: as §2

[9] = molecular target: T2, cynomolgus monkey SLITRK6 extracellular …; experiment: BLI; antigen ECD-his on anti-his tips, antibody as analyte; 1:1 fit;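 note: antibody at several concentrations, 180 s association then 300 s dissociation in Tris buffer at pH 6 or 7.5, rate constants from global fitting, KD computed as koff/kon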
Procedure: (§3) Binding kinetic of antibody-antigen was characterized by the bio-layer interferometry (BLI). 100 nM of SLITRK6′ extracellular domain linked to his tag was immobilized on anti-his biosensor tips (Fortebio). The sensors were rinsed with the buffer (50 mM Tris-AcOH, pH 6 or 7.5, 0.05% v/v surfactant P20) for 10 min to remove the unbound molecules, then dipped in the antibody solutions at different concentrations for 180 seconds and interspersed by a rinsing step in the buffer solution for 300 seconds. Binding affinity was calculated using ForteBio Data Acquisition 6.3 software (ForteBio) and was derived by fitting the kinetic data to a 1:1 Langmuir binding model utilizing global fitting algorithms. The dissociation or association equilibrium constant KD was calculated from the binding rate constants as KD=koff/kₒₙ(where koff and kₒₙ represent the dissociation kinetic constant and the association kinetic constant, respectively).

[10] = molecular target: T3, human SLITRK6 extracellular domain …; experiment: as above
Procedure: as §3

human SLITRK6 on cells [11] = molecular target: T1, human SLITRK6 on cells; experiment: flow cytometry on SW780 cells
Procedure: as §1

human SLITRK6 on cells [12] = molecular target: T1, human SLITRK6 on cells; experiment: flow cytometry on 293F-huSLITRK6-C9 cells
Procedure: The binding activity of mAbs was evaluated by flow cytometer (Beckman, Cytoflex). Specifically, cells were incubated with 50 μL of mAbs or ADCs in series dilutions in PBS containing 1% BSA at 4° C. for 30 min. The cells were washed twice with PBS containing 1% BSA, stained with PE-conjugated anti human Fc in PBS containing 1% BSA and then incubated at 4° C. for 20 min. After that the cells were washed twice with PBS and analyzed by a flow cytometer.

human SLITRK6 on cells [13] = molecular target: T1, human SLITRK6 on cells; experiment: flow cytometry on CHP-212 cells; remark: listed apart in the source
Procedure: as §2

human SLITRK6 on cells [14] = molecular target: T1, human SLITRK6 on cells; experiment: flow cytometry on RT4 cells
Procedure: as §2

human SLITRK6 on cells [15] = molecular target: T1, human SLITRK6 on cells; experiment: flow cytometry on SW780 cells; remark: listed apart in the source
Procedure: as §2

human SLITRK6 on cells [16] = molecular target: T1, human SLITRK6 on cells; experiment: flow cytometry on RT4 cells; remark: listed apart in the source
Procedure: as §1

[17] = molecular target: T3, human SLITRK6 extracellular domain …; experiment: BLI binning on huSLITRK6-his; Ab1 = row antibody first, then Ab2 (competitor) = hu1H2-03
Procedure: (§4) Epitope binning was characterized by the bio-layer interferometry (BLI). 100 nM of human SLITRK6′ extracellular domain linked to his tag was immobilized on anti-his biosensor tips (Fortebio). The sensors were rinsed with the buffer (50 mM Tris-AcOH, pH 6 or 7.5, 0.05% v/v surfactant P20) for 30 seconds to remove the unbound molecules, then dipped in the 100 nM of antibody 1 solutions for 180 seconds and interspersed by a rinsing step in the buffer solution for 300 seconds. After that, the sensors were dipped in the 100 nM of antibody 2 solutions. The epitope cluster was calculated using ForteBio Data Acquisition 6.3 software.

[18] = molecular target: T3, human SLITRK6 extracellular domain …; experiment: BLI binning on huSLITRK6-his; Ab1 = row antibody first, then Ab2 (competitor) = hu1H2-13
Procedure: as §4

[19] = molecular target: T3, human SLITRK6 extracellular domain …; experiment: BLI binning on huSLITRK6-his; Ab1 = row antibody first, then Ab2 (competitor) = phA108
Procedure: as §4

[20] = molecular target: T3, human SLITRK6 extracellular domain …; experiment: BLI binning on huSLITRK6-his; Ab1 = row antibody first, then Ab2 (competitor) = phA290
Procedure: as §4

[21] = molecular target: T3, human SLITRK6 extracellular domain …; experiment: BLI binning on huSLITRK6-his; Ab1 = row antibody first, then Ab2 (competitor) = Sirtratumab
Procedure: as §4

[22] = molecular target: T3, human SLITRK6 extracellular domain …; experiment: BLI binning on huSLITRK6-his; Ab1 = row antibody first, then Ab2 (competitor) = hu14G1-03
Procedure: as §4

| Binder | EC50 (human SLITRK6 on cells [3]) [nM] | EC50 (human SLITRK6 on cells [4]) [nM] | EC50 (human SLITRK6 on cells [5]) [nM] | EC50 [6] [nM] | EC50 [7] [nM] | EC50 (rat SLITRK6) [nM] | EC50 (human SLITRK6 on cells [8]) [nM] | Kd [9] [nM] | Kd [10] [nM] | EC50 (human SLITRK6 on cells [11]) [nM] | EC50 (human SLITRK6 on cells [12]) [nM] | EC50 (human SLITRK6 on cells [13]) [nM] | EC50 (human SLITRK6 on cells [14]) [nM] | EC50 (human SLITRK6 on cells [15]) [nM] | EC50 (human SLITRK6 on cells [16]) [nM] | also measured |
| --- | --- | --- | --- | --- | --- | --- | --- | --- | --- | --- | --- | --- | --- | --- | --- | --- |
| B1 |  |  |  |  |  |  |  |  |  |  |  |  |  |  |  | EC50 (read off the curve) (human SLITRK6 on cells [1]): ~0.4 nM; EC50 (read off the curve) (human SLITRK6 on cells [2]): ~0.3 nM |
| B2 | 0.15 | 1.16 | 0.16 | 0.06 | 0.09 | 0.18 | 0.08 | 3.14 | 1.06 | 0.27 | 1.16 | 0.14 | 0.14 | 0.27 | 0.14 |  |
| B3 | 0.18 | 0.87 | 0.14 | 0.06 | 0.05 | 0.29 | 0.1 | 4.69 | 1.05 | 0.27 | 0.87 | 0.14 | 0.1 | 0.27 | 0.12 | epitope binning signal [17]: 0.292; epitope binning signal [18]: 0.285; koff [9]: 0.00379 s⁻¹; kon [9]: 809000 M⁻¹ s⁻¹; koff [10]: 0.000969 s⁻¹; kon [10]: 924000 M⁻¹ s⁻¹; epitope binning signal [19]: 0.0346; epitope binning signal [20]: 0.0375; epitope binning signal [21]: 0.276; epitope binning signal [22]: 0.274 |
